Substitutions are numbered along the chain they refer to. Numbers in names are those of the source.
Key:
[1] = target: T1, ProQNTD (FinO domain of ProQ) (Escherichia coli, UniProt P45577 1-130); assay: EMSA; 25 mM Tris-HCl pH 7.5, 150 mM NaCl, 5% glycerol, 1 mM MgCl2, 1 nM 32P-RNA, 30 min at room temperature; native 6% PAGE in 0.5x TBE at 4 C; details: protein: recombinant, tags: pET-15b construct, label: 32P
T1 sequence: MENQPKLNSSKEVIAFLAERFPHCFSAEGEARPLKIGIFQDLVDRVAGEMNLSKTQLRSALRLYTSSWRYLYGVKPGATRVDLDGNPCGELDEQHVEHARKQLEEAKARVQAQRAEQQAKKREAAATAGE

FinO [2] = target: T2, FinO (F-like plasmid (Escherichia coli), UniProt P29367 1-186); assay: as above; details: protein: recombinant, tags: His6-TEV site (ENLYFQ/S) N-terminal in the expression construct, label: 32P
T2 sequence: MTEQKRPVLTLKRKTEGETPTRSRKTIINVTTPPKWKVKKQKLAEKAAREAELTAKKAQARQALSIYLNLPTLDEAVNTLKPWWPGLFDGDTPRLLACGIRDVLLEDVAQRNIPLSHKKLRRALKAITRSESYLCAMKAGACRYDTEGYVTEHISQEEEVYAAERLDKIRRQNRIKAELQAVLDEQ

ProQ [3] = target: T3, ProQ (Escherichia coli, UniProt P45577 1-232); assay: as above; details: protein: recombinant, tags: pET-15b construct, label: 32P
T3 sequence: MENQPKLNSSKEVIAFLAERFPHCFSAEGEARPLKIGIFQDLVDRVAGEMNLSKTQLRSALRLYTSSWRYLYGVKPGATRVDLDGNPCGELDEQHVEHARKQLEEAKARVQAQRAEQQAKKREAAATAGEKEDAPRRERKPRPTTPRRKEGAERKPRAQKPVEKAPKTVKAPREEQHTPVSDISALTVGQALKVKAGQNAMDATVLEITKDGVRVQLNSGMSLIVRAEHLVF

FinO [4] = target: T2, FinO; assay: EMSA; max bound 55%; 150 mM NaCl, 25 mM Tris-HCl pH 7.5, 5% glycerol, 1 mM MgCl2, 1 nM 32P-RNA, 30 min at room temperature; native 6% PAGE in 0.5x TBE at 4 C; details: protein: recombinant; tags: His6-TEV site (ENLYFQ/S) N-terminal in the expression construct; label: 32P; terminator hairpin
ProQ [5] = target: T3, ProQ; assay: EMSA; max bound 67%; 150 mM NaCl, 25 mM Tris-HCl pH 7.5, 5% glycerol, 1 mM MgCl2, 1 nM 32P-RNA, 30 min at room temperature; native 6% PAGE in 0.5x TBE at 4 C; details: protein: recombinant; tags: pET-15b construct; label: 32P; terminator hairpin
FinO [6] = target: T2, FinO; assay: EMSA; max bound 57%; 150 mM NaCl, 25 mM Tris-HCl pH 7.5, 5% glycerol, 1 mM MgCl2, 1 nM 32P-RNA, 30 min at room temperature; native 6% PAGE in 0.5x TBE at 4 C; details: protein: recombinant; tags: His6-TEV site (ENLYFQ/S) N-terminal in the expression construct; label: 32P; terminator hairpin
ProQ [7] = target: T3, ProQ; assay: EMSA; max bound 85%; 150 mM NaCl, 25 mM Tris-HCl pH 7.5, 5% glycerol, 1 mM MgCl2, 1 nM 32P-RNA, 30 min at room temperature; native 6% PAGE in 0.5x TBE at 4 C; details: protein: recombinant; tags: pET-15b construct; label: 32P; terminator hairpin
[8] = terminator hairpin, A-G then C-A mismatch below, GAU4 tail
[9] = terminator hairpin, 5' A4 paired with first four U of U8 tail

B1: RepX-malM (structured_RNA)
RNA: GCAUUGAUUGCCUCCUUUGCAGGCAGUUGGUGGACUGGCGCUGGCGGGGUCACUACCCCCGCCCUGCGCCUUUUUUU
Kd ([1]; terminator hairpin): 3.2 ± 1.6 nM
Kd (FinO [2]; terminator hairpin): 150 ± 67 nM

B2: FinP (structured_RNA)
RNA: GGAUACAUAGGAACCUCCUCACAAAGGAUUCUAUGGACAGUCGAUGCAGGGAGUUCACGUCUCCCUGCAUCGGCGAUUUU
Kd [1, 8]: 19 ± 6 nM
Kd (FinO [2]; [8]): 110 ± 16 nM
Kd (ProQ [3]; [8]): 79 ± 18 nM

B3: FinP A39U;G75U (structured_RNA)
RNA: B2 RNA with A39U, G75U
Kd [1]: 6.2 ± 3.1 nM
Kd (FinO [2]): 200 ± 73 nM

B4: FinP A39U;G75U;A76U (structured_RNA)
RNA: B2 RNA with A39U, G75U, A76U
Kd [1]: 9.4 ± 4.5 nM
Kd (FinO [2]): 170 ± 45 nM
Kd (ProQ [3]): 37 ± 5.4 nM

B5: RepX (structured_RNA)
RNA: GCAUUGAUUGCCUCCUUUGCAGGCAGUUGGUGGUUAGGCGCUGGCGGGGUCACUACCCCCGCCCUGCGCCGCUCU
Kd (FinO [2]; terminator hairpin, A-G mismatch below): 61 ± 23 nM

B6: malM-RepX (structured_RNA)
RNA: GCUUUAUCAGCAGUGUAAAAGGCAAGGGGUAAUUACGCCCCACAGUGCUGAUUUUGCAACAUUAGGUGCGUCUCCUGGCGCACCGCUCU
Kd (FinO [4]): 180 ± 93 nM
Kd (ProQ [5]): 61 ± 29 nM
Kd (FinO [2]; terminator hairpin): 180 ± 93 nM
Kd (ProQ [3]; terminator hairpin): 61 ± 29 nM

B7: malM-FinP (structured_RNA)
RNA: GCUUUAUCAGCAGUGUAAAAGGCAAGGGGUAAUUACGCCCCACAGUGCUGAUUUUGCAACAACAGGUGCGUCUCCUGGCGCACCGAUUUU
Kd (FinO [2]; terminator hairpin): 86 ± 17 nM
Kd (ProQ [3]; terminator hairpin): 78 ± 22 nM

B8: malM-3' (structured_RNA)
RNA: GCUUUAUCAGCAGUGUAAAAGGCAAGGGGUAAUUACGCCCCACAGUGCUGAUUUUGCAACAACUGGUGCGUCUCCUGGCGCACCUUUUUUU
Kd ([1]; terminator hairpin, U7 tail): 5.8 ± 0.7 nM
Kd (ProQ [3]; terminator hairpin, U7 tail): 27 ± 12 nM

B9: malM-3' U64A;U85G;U86A (structured_RNA)
RNA: B8 RNA with U64A, U85G, U86A
Kd (FinO [2]): 130 ± 18 nM
Kd (ProQ [3]): 160 ± 30 nM

B10: malM-3' U64A;U85G (structured_RNA)
RNA: B8 RNA with U64A, U85G
Kd [1]: 1.9 ± 0.59 nM
Kd (FinO [2]): 150 ± 40 nM

B11: cspE81-3' (structured_RNA)
RNA: GGCCCUUCUGCUGCAAACGUAAUCGCUCUGUAAGAUACGUCAGCAAGAAUUCAAAACCCGCUUAAUCAGCGGGUUUUUUUU
Kd [1, 9]: 2.4 ± 0.27 nM
Kd (ProQ [3]; [9]): 37 ± 7.1 nM

B12: FinP-malM (structured_RNA)
RNA: GGAUACAUAGGAACCUCCUCACAAAGGAUUCUAUGGACUGUCGAUGCAGGGAGUUCACGUCUCCCUGCAUCGGCUUUUUUU
Kd (FinO [6]): 280 ± 110 nM
Kd ([1]; terminator hairpin): 5.3 ± 1.5 nM
Kd (ProQ [3]; terminator hairpin): 25 ± 6.7 nM

B13: cspE81-FinP-stem (structured_RNA)
RNA: GGCCCUUCUGCUGCAAACGUAAUCGCUCUGUAAGAUACGUCAGCAAGAAUUCAACAGUCGCUUAAUCAGCGGCGAUUUU
Kd (ProQ [7]): 130 ± 34 nM
Kd (FinO [2]; terminator hairpin): 56 ± 16 nM
Kd (ProQ [3]; terminator hairpin): 130 ± 34 nM

B14: cspE81-FinP (structured_RNA)
RNA: B13 RNA with G57C, U58C, C73G
Kd ([1]; terminator hairpin): 4.9 ± 0.32 nM
Kd (FinO [2]; terminator hairpin): 88 ± 39 nM
